{"source": "patent US20210277125A1", "about": "(University of California, published 2021)", "binders": {"B1": {"name": "ADWA11 2.4 (chimeric version: humanized variable domains and CH1, murine IgG2a CH2/CH3) (antibody, V domains shown)", "VH": "EVQLVESGGGLVQPGGSLRLSCAASGFNIKDYYMNWVRQAPGKGLEWVGWIDPDQGNTIYEPKFQGRFTISADTSKNSAYLQMNSLRAEDTAVYYCARRLLMDYWGQGTLVTVSS", "VL": "DIQMTQSPSSLSASVGDRVTITCRSTKSLSHFNGNTYLFWYQQKPGKAPKRLIYYMSSLASGVPSRFSGSGSGTDFTLTISSLQPEDFATYYCQQSLEYPFTFGGGTKVEIKR"}, "B2": {"name": "C6D4 IgG 2a (antibody, V domains shown)", "VH": "QIQLVQSGPELKKPGETVKISCKASGYTFTDYSMHWVKQAPGKGLKWVARINTETGEPTFADDFRGRFAVSLETSASTAYLQINNLKNEDTATYFCAIFYYGRDSWGQGTTLTVSS", "VL": "DIVMTQSPSSLAVSAGEKVTMSCKSSQSLLNSRTRKNYLAWYQQKPGQSPRLLIYWASTRESGVPDRFTGSGSGTDFTLTISSVQAEDLAVYYCKQSYNLLSFGAGTKLELKR", "notes": "IgG2a"}, "B3": {"name": "antibody with heavy chain with the C6 VH1 (D to K) mutation expressed with light chain D4 (antibody, V domains shown)", "VH": "QIQLVQSGAEVKKPGASVKISCKASGYTFTKYSMHWVRQAPGQGLEWVARINTETGEPTFADDFRGRFTVTLDTSTSTAYLEIRSLRSDDTAVYFCAIFYYGRDTWGQGTTLTVSS", "VL": "EIVMTQSPATLSVSPGERVTMSCKSSQSLLNSRSRKNYLAWYQQKPGQAPRLLIYWASTRESGVPARFSGSGSGTEFTLTISSVQSEDFAVYYCKQSYNLLSFGQGTVLEIKR", "notes": "Single mutant of HuC6D4"}, "B4": {"name": "fully human C6D4 F12 (version of huC6D4F12 where CH1-3 were all human) (antibody, V domains shown)", "VH": "B3 VH", "VL": "B3 VL with N31H"}, "B5": {"name": "C6-TGFβ1RGD (antibody, V domains shown)", "VH": "B3 VH with K31D", "VL": "EIVMTQSPATLSVSPGERVTMSCKSSQSLLRRGDLATIHGNALAWYQQKPGQAPRLLIYWASTRESGVPARFSGSGSGTEFTLTISSVQSEDFAVYYCKQSYNLLSFGQGTVLEIKR", "notes": "also called C6-TGF-TGFβ1RGD"}, "B6": {"name": "antibody with light chain D4 VL1 (N to H) mutation expressed with heavy chain C6 (antibody, V domains shown)", "VH": "B3 VH with K31D", "VL": "B3 VL with N31H", "notes": "Single mutant of HuC6D4"}, "B7": {"name": "HuC6D4F12 (antibody, V domains shown)", "VH": "B3 VH", "VL": "B3 VL with N31H", "notes": "Whole antibody; also called HC6D4F12; HuC6D412"}, "B8": {"name": "HuC6D4 (antibody, V domains shown)", "VH": "B3 VH with K31D", "VL": "B3 VL", "notes": "Whole antibody; also called Human C6D4; Humanized C6D4"}}, "key": {"[1]": {"molecular_target": "T1, recombinant αvβ8 ectodomain (UniProt P06756 31-992; P26012 43-684, limits assumed)", "T1 sequence (P06756 31-992 limits assumed, chain 1 of 2)": "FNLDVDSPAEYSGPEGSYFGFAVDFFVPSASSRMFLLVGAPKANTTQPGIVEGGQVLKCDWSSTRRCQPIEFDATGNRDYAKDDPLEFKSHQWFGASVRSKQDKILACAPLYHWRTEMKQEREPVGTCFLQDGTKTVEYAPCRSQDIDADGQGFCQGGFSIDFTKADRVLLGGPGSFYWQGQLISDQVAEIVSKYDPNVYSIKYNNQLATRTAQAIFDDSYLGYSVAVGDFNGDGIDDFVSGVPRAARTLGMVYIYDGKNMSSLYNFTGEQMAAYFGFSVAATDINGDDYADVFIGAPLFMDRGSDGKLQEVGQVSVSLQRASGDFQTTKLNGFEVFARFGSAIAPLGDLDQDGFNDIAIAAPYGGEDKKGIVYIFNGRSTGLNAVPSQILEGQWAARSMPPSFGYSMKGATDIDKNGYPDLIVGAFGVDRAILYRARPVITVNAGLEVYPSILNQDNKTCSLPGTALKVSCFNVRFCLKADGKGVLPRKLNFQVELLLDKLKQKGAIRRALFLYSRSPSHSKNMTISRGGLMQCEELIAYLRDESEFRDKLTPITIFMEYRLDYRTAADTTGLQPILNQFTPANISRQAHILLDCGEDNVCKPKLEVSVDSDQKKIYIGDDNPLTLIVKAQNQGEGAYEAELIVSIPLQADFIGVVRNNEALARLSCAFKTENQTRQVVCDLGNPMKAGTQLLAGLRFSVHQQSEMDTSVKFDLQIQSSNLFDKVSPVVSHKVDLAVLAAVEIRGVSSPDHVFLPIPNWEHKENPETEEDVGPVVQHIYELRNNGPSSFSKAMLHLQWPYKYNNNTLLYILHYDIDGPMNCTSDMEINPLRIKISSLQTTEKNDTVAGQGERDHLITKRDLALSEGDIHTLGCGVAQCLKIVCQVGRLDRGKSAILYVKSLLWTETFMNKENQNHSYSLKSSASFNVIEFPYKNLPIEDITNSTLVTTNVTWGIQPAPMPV", "T1 sequence (P26012 43-684 limits assumed, chain 2 of 2)": "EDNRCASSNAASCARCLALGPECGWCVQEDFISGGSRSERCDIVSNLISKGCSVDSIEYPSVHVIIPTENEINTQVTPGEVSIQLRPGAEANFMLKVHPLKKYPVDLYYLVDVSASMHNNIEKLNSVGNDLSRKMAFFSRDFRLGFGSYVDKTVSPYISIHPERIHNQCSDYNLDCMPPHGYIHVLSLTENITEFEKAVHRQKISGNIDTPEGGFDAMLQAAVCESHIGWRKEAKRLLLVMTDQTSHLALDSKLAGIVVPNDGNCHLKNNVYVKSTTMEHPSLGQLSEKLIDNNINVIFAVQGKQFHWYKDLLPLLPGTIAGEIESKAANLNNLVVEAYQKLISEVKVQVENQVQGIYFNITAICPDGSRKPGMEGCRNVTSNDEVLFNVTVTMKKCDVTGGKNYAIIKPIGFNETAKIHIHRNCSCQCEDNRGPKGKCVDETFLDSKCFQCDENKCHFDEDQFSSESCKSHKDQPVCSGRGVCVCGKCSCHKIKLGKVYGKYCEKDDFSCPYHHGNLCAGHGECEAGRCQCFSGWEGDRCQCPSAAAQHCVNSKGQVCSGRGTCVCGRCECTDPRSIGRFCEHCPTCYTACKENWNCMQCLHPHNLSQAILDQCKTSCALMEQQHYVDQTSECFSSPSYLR", "assay": "cell-based or functional assay"}, "[2]": {"molecular_target": "T2, integrin αvβ8 on human ovarian carcinoma line OVCAR3 (human, UniProt P06756 31-1048; P26012 43-769)", "T2 construct": "whole, on cells; also called OVCAR3 cells", "T2 sequence (P06756 31-1048, chain 1 of 2)": "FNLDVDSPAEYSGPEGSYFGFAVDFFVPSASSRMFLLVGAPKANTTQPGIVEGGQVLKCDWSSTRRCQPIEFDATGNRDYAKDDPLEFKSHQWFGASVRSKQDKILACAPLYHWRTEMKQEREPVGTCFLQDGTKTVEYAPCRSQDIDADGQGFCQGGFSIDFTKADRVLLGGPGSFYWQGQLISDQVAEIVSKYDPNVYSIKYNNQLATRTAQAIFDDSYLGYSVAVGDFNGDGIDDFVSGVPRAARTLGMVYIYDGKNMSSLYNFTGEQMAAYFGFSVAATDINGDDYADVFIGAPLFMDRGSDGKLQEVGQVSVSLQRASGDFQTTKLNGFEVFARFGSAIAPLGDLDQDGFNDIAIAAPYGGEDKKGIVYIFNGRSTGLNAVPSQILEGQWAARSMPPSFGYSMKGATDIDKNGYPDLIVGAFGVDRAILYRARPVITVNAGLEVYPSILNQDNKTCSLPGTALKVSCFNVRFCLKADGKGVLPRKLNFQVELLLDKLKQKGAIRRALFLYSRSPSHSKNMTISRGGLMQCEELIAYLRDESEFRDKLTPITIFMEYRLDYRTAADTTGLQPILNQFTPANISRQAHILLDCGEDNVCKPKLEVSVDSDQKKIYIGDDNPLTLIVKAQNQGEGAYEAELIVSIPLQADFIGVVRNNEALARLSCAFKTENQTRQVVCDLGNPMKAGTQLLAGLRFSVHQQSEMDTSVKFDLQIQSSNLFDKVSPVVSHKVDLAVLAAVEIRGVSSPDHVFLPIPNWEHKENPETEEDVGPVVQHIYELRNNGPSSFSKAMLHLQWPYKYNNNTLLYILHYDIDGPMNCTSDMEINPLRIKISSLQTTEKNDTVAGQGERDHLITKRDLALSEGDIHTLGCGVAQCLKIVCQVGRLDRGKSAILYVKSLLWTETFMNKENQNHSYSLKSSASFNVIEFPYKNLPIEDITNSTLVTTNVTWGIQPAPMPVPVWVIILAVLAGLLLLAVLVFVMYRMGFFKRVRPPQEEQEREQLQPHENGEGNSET", "T2 sequence (P26012 43-769, chain 2 of 2)": "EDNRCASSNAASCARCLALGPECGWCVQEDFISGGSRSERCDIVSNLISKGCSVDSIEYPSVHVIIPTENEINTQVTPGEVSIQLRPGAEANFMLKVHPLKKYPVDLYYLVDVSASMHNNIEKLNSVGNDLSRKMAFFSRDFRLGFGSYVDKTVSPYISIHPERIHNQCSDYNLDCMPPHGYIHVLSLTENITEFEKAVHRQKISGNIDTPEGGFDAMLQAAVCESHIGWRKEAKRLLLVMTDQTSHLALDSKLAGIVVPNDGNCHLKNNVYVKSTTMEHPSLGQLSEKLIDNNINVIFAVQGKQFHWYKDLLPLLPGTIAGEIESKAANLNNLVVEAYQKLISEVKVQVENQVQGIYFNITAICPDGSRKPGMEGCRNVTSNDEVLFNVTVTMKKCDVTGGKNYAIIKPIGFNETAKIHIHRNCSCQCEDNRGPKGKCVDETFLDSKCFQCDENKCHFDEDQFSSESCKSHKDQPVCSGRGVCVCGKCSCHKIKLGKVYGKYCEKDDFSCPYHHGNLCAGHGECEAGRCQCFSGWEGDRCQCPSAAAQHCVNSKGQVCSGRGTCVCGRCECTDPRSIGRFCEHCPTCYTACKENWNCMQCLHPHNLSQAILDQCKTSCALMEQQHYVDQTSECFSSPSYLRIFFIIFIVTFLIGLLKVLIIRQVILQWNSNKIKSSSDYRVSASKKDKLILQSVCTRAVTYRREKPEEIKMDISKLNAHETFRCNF", "assay": "flow cytometry on OVCAR3 cells, 15 min at 4 °C, detection with anti-mouse (H+L)-PE, MFI against nM antibody", "experimental": "(§1) All antibodies were produced in CHO cells. […] Primary […] were incubated at 4° C. for 15 min."}, "[3]": {"molecular_target": "T1, recombinant αvβ8 ectodomain", "assay": "kinetic exclusion assay (KinExA)", "experimental": "Affinity for the antibodies described in the Examples was determined using a kinetic exclusion assay format. KinExA (https://www.sapidyne.com). The affinity was calculated as follows: […]"}, "[4]": {"molecular_target": "T2, integrin αvβ8 on human ovarian …", "assay": "flow cytometry on OVCAR3 cells, 15 min at 4 °C, detection with anti-mouse-PE, MFI against antibody concentration, KaleidaGraph fit", "experimental": "(§2) ELISA plates were coated with antibodies (2 μg/ml), washed, blocked with BSA, and then recombinant integrins were added at the indicated concentrations. After a brief incubation at RT, wells were washed and bound integrin detected with biotin conjugated anti-αv (8B8-biotin, 1 μg/ml) followed by Streptavidin-HRP. […] Antibodies were incubated at the indicated concentrations for 15 min at 4° C. and after washing detected with anti-mouse-PE."}, "[5]": {"molecular_target": "T3, recombinant integrin αvβ6 (UniProt P06756 31-992; P18564 22-707, limits assumed)", "T3 sequence (P06756 31-992 limits assumed, chain 1 of 2)": "as the sequence (P06756 31-992 limits assumed, chain 1 of 2) above", "T3 sequence (P18564 22-707 limits assumed, chain 2 of 2)": "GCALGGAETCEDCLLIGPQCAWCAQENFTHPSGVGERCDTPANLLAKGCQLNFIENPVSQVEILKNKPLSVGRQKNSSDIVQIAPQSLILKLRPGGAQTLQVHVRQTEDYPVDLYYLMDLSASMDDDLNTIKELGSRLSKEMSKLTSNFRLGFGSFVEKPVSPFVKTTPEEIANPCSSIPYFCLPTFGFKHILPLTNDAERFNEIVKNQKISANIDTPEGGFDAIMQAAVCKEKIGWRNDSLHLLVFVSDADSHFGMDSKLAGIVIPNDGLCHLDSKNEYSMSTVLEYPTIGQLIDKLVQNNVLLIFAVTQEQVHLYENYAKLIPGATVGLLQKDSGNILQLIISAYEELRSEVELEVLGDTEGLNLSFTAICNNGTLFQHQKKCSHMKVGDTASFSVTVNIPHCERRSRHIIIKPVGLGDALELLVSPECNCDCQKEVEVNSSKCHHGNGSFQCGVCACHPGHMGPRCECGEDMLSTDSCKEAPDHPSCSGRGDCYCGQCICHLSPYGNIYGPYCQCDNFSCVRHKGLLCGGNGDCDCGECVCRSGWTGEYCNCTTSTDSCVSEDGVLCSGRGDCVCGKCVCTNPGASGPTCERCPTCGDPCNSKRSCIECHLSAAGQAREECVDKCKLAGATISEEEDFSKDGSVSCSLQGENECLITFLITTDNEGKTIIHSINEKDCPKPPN", "assay": "ELISA: plate coated with antibody (2 µg/ml), recombinant integrin added, detected with 8B8-biotin and Streptavidin-HRP", "experimental": "as §2"}, "[6]": {"molecular_target": "recombinant integrin αvβ3 (UniProt P06756 31-992; P05106 27-718)", "assay": "ELISA: plate coated with antibody (2 µg/ml), recombinant integrin added, detected with 8B8-biotin and Streptavidin-HRP", "experimental": "as §2"}, "[7]": {"molecular_target": "recombinant integrin αvβ5 (UniProt P06756 31-992; P18084 24-719)", "sequence (P06756 31-992 limits assumed, chain 1 of 2)": "as the sequence (P06756 31-992 limits assumed, chain 1 of 2) above", "sequence (P18084 24-719 limits assumed, chain 2 of 2)": "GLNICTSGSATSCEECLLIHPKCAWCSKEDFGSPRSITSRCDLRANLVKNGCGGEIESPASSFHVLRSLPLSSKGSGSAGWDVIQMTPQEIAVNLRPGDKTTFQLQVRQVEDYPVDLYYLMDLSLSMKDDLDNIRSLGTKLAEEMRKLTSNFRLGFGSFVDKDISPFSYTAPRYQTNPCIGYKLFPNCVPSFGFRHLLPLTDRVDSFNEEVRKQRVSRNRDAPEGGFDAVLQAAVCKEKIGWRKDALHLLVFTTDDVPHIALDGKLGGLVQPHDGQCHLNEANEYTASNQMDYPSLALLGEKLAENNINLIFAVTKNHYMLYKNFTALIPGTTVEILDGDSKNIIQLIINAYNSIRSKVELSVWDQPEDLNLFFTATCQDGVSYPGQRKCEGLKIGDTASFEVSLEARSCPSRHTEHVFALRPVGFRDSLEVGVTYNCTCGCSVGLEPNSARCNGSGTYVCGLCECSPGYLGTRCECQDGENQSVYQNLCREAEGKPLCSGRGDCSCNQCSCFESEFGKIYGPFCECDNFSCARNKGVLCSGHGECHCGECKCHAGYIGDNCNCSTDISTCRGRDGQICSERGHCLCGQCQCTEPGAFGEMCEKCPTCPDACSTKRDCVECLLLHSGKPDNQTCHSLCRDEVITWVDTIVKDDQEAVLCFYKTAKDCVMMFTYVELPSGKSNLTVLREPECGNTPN", "assay": "ELISA: plate coated with antibody (2 µg/ml), recombinant integrin added, detected with 8B8-biotin and Streptavidin-HRP", "experimental": "as §2"}, "[8]": {"molecular_target": "recombinant integrin αvβ1 (UniProt P06756 31-992; P05556 21-728)", "assay": "ELISA: plate coated with antibody (2 µg/ml), recombinant integrin added, detected with 8B8-biotin and Streptavidin-HRP", "experimental": "as §2"}, "[9]": {"molecular_target": "T2, integrin αvβ8 on human ovarian …", "assay": "competition flow cytometry on OVCAR3 cells: fixed ADWA11 2.4 (chimeric, murine IgG2a CH2/CH3) with titrated fully human C6D4 F12, 15 min at 4 °C, ADWA11 2.4 detected with anti-mouse (H+L) PE", "experimental": "as §1"}, "[10]": {"molecular_target": "T1, recombinant αvβ8 ectodomain", "assay": "sandwich ELISA: antibody coated at 2 µg/ml, recombinant integrin titrated, bound integrin detected with anti-αv 8B8-biotin and streptavidin-HRP", "experimental": "ELISA plates were coated with antibodies (2 μg/ml), washed, blocked with BSA, and then recombinant integrins were added at the indicated concentrations. After a brief incubation at RT, wells were washed and bound integrin detected with biotin conjugated anti-αv (8B8-biotin, 1 μg/ml) followed by Streptavidin-HRP."}, "[11]": {"molecular_target": "T1, recombinant αvβ8 ectodomain", "assay": "cell-based or functional assay", "remark": "listed apart in the source"}, "[12]": {"molecular_target": "T3, recombinant integrin αvβ6", "assay": "ELISA on coated integrin (1 µg/ml), antibody binding read as A450; antibody concentration not given"}}, "note": "Substitutions are numbered along the chain they refer to."}
{"binder": "B1", "values": [{"measurement": "IC50 of inhibition of TGF-β activation (TMLC reporter cells expressing TGF-β1/GARP on immobilized αvβ8)", "setting": "[1]", "value": 57.7, "unit": "mg/L"}, {"measurement": "Kd", "setting": "[2]", "value": 26.3, "unit": "nM"}]}
{"binder": "B2", "values": [{"measurement": "Kd", "setting": "[3]", "value": 1.3, "unit": "nM"}]}
{"binder": "B3", "values": [{"measurement": "Kd", "setting": "[4]", "value": 2.5, "unit": "nM"}, {"measurement": "binding result", "setting": "[5]", "value": "no binding"}, {"measurement": "binding result", "setting": "[6]", "value": "no binding"}, {"measurement": "binding result", "setting": "[7]", "value": "no binding"}, {"measurement": "binding result", "setting": "[8]", "value": "no binding"}]}
{"binder": "B4", "values": [{"measurement": "IC50 (read off the curve)", "setting": "[9]", "value": "~0.1", "unit": "mg/L"}]}
{"binder": "B5", "values": [{"measurement": "binding result", "setting": "[10]", "value": "binds"}]}
{"binder": "B6", "values": [{"measurement": "Kd", "setting": "[4]", "value": 4.7, "unit": "nM"}, {"measurement": "binding result", "setting": "[5]", "value": "no binding"}, {"measurement": "binding result", "setting": "[6]", "value": "no binding"}, {"measurement": "binding result", "setting": "[7]", "value": "no binding"}, {"measurement": "binding result", "setting": "[8]", "value": "no binding"}]}
{"binder": "B7", "values": [{"measurement": "Kd", "setting": "[4]", "value": 3.1, "unit": "nM"}, {"measurement": "IC50 of inhibition of TGF-β activation (TMLC reporter cells expressing TGF-β1/GARP on immobilized αvβ8)", "setting": "[1]", "value": 0.75, "unit": "mg/L"}, {"measurement": "Kd", "setting": "[3]", "value": 0.00236, "unit": "nM"}, {"measurement": "inhibition of TGF-β activation (immobilized αvβ8 at 1 µg/ml and TGF-β1/GARP expressing TMLC reporter cells); fold against ADWA11 2.4", "setting": "[11]", "value": "~77", "unit": "fold"}, {"measurement": "Kd", "setting": "[2]", "value": 1.4, "unit": "nM"}, {"measurement": "binding result", "setting": "[12]", "value": "no binding"}]}
{"binder": "B8", "values": [{"measurement": "Kd", "setting": "[4]", "value": 4.9, "unit": "nM"}, {"measurement": "Kd", "setting": "[3]", "value": 0.0821, "unit": "nM"}]}
